What is called EC50 is the concentration needed to bring the measured effect to its halfway point. Low values mean higher potency in that assay, high ones lower potency in that assay.

Results on 25 molecules are retold here after US20220259330A1 (SUNSHINE GUOJIAN PHARMACEUTICAL SHANGHAI, published 2022).

Sequences and labels used below:
B1: 14-Fab-1D11-IgG4 (bispecific antibody)
heavy: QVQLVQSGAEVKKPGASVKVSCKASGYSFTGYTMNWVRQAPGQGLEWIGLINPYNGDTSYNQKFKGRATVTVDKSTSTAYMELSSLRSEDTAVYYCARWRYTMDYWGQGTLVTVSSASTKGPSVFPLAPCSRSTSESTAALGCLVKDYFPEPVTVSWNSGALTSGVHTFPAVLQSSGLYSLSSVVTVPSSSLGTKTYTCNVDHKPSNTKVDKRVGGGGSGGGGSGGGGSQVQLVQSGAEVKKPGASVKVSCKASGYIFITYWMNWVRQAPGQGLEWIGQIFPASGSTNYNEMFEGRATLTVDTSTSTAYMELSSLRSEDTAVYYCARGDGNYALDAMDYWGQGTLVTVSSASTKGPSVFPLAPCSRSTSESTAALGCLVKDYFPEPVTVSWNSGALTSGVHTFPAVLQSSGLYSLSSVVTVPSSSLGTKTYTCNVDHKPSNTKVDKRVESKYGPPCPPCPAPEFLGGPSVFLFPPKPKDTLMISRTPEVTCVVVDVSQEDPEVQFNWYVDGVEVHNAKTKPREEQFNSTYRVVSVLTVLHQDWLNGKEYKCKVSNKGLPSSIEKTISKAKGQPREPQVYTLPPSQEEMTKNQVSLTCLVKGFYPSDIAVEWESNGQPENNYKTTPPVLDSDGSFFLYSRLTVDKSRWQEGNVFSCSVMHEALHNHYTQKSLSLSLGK
light: DIVLTQSPASLAVSPGQRATITCRASESVDNYGNSFMNWYQQKPGQPPKPLIYFASNLESGVPARFSGSGSRTDFTLTINPVEADDTANYYCQQNNEAPPTFGQGTKVEIKRTVAAPSVFIFPPSDEQLKSGTASVVCLLNNFYPREAKVQWKVDNALQSGNSQESVTEQDSKDSTYSLSSTLTLSKADYEKHKVYACEVTHQGLSSPVTKSFNRGEC
B2: 1D11-Fab-14-IgG4 (bispecific antibody)
heavy: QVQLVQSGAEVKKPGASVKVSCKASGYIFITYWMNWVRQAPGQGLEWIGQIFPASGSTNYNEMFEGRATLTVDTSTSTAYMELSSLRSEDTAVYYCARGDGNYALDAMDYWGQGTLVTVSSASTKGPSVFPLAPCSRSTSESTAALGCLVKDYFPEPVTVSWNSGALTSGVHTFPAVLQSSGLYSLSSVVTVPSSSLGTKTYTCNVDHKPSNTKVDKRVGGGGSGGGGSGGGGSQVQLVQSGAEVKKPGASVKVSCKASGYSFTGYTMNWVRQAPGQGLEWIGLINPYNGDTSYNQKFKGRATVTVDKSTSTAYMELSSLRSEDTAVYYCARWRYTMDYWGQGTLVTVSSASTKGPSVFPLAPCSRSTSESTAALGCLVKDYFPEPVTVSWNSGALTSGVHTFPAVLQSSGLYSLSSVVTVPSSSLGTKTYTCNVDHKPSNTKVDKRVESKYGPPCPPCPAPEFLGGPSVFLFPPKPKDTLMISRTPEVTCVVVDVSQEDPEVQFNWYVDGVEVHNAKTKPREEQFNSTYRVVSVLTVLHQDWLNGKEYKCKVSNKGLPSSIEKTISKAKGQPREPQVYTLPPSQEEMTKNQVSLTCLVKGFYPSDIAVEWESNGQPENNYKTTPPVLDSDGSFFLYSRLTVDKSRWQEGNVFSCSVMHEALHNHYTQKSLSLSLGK
light: B1 light
B3: 127-Fab-14-IgG4 (bispecific antibody)
heavy: not shown
light: B1 light
B4: 14-Hu-HC+1D11-Hu-LC (antibody, human IgG4 S228P, kappa, V domains shown)
VH: QVQLVQSGAEVKKPGASVKVSCKASGYSFTGYTMNWVRQAPGQGLEWIGLINPYNGDTSYNQKFKGRATVTVDKSTSTAYMELSSLRSEDTAVYYCARWRYTMDYWGQGTLVTVSS
VL: DIVLTQSPASLAVSPGQRATITCRASESVDSYGNSFMHWYQQKPGQPPKLLIYLASNLESGVPARFSGSGSGTDFTLTINPVEADDTANYYCQQNNEDPLTFGGGTKVELKR
notes: Hybrid antibody
B5: 1D11-Hu (antibody, human IgG4 S228P, kappa, V domains shown)
VH: QVQLVQSGAEVKKPGASVKVSCKASGYIFITYWMNWVRQAPGQGLEWIGQIFPASGSTNYNEMFEGRATLTVDTSTSTAYMELSSLRSEDTAVYYCARGDGNYALDAMDYWGQGTLVTVSS
VL: B4 VL
notes: Humanized anti-TGF-β, IgG4 (S228P), kappa; also called 1D11-Hu-HC+1D11-Hu-LC
B6: 1D11-Hu-HC+14-Hu-LC (antibody, human IgG4 S228P, kappa, V domains shown)
VH: B5 VH
VL: B4 VL with S31N, H38N, L50P, L54F, G72R, D98A, L100P, G104Q, L110I
notes: Hybrid antibody
B7: mAb127 (antibody, human IgG4 S228P, kappa, V domains shown)
VH: QVQLVQSGAEVKKPGASVKVSCKASGYTFTSEWMNWVRQAPGQGLEWMGQIFPALGSTNYNEMYEGRVTMTTDTSTSTAYMELRSLRSDDTAVYYCARGIGNYALDAMDYWGQGTLVTVSS
VL: DIQMTQSPSSLSASVGDRVTITCRASESVDFYGNSFMHWYQQKPGKAPKLLIYLASNLESGVPSRFSGSGSGTDFTLTISSLQPEDFATYYCQQNIEDPLTFGGGTKVEIKR
notes: Anti-TGF-β, IgG4 (S228P), kappa; also called mAb127-HC+mAb127-LC
B8: 20-Hu-HC+601-LC-D28G (antibody, human IgG4 S228P, kappa, V domains shown)
VH: EVQLVESGGGLVQPGGSLRLSCAASGFVFSNYDMSWVRQAPGKRLEWVATISGGGGYTYYSDSVKGRFTISRDNAKNSLYLQMNSLRAEDTAVYYCASPYGHYGFEYWGQGTLVTVSS
VL: DIQMTQSPSSLSASVGDRVTITCSASQGISNYLNWYQQKPGKAPKVLIYFTSSLHSGVPSRFSGSGSGTDFTLTISSLQPEDFATYYCQQYSTVPWTFGQGTKVEIKR
B9: 20-Hu-HC+601-LC-N34S (antibody, human IgG4 S228P, kappa, V domains shown)
VH: B8 VH
VL: B8 VL with G28D, N34S
B10: 20-Hu-HC+601-LC-V46L (antibody, human IgG4 S228P, kappa, V domains shown)
VH: B8 VH
VL: B8 VL with G28D, V46L
B11: 20-Hu-HC+601-LC-Y32F (antibody, human IgG4 S228P, kappa, V domains shown)
VH: B8 VH
VL: B8 VL with G28D, Y32F
B12: 20-Hu-HC+601-LC-F71Y (antibody, human IgG4 S228P, kappa, V domains shown)
VH: B8 VH
VL: B8 VL with G28D, F71Y
B13: 20-Hu-HC+601-LC-T93N (antibody, human IgG4 S228P, kappa, V domains shown)
VH: B8 VH
VL: B8 VL with G28D, T93N
B14: 20-Hu-HC+601-LC-F50Y (antibody, human IgG4 S228P, kappa, V domains shown)
VH: B8 VH
VL: B8 VL with G28D, F50Y
B15: 609-Fab-137-IgG4 (bispecific antibody)
heavy: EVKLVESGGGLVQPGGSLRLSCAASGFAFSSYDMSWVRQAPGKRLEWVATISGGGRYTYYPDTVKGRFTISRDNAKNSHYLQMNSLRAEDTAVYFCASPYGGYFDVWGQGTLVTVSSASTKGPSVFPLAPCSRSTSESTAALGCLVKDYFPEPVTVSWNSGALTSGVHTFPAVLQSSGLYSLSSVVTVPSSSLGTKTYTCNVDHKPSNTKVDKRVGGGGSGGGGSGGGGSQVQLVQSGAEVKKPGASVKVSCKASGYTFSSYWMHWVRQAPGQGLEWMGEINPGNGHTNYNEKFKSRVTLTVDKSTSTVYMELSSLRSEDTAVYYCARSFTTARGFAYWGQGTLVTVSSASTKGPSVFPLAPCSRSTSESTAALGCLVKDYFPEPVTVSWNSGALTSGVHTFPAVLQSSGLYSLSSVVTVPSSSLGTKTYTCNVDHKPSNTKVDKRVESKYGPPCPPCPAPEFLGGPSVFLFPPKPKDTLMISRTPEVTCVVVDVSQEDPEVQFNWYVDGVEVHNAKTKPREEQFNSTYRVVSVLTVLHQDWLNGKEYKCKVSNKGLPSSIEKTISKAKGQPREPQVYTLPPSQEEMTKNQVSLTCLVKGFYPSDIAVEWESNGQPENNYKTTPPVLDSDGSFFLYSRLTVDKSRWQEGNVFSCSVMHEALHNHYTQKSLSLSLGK
light: EIVMTQSPDFQSVTPKEKVTITCRASQTISDYLHWYQQKPDQSPKLLIKYASQSISGIPSRFSGSGSGSDFTLTINSLEAEDAATYYCQDGHSFPPTFGQGTKVEIKRTVAAPSVFIFPPSDEQLKSGTASVVCLLNNFYPREAKVQWKVDNALQSGNSQESVTEQDSKDSTYSLSSTLTLSKADYEKHKVYACEVTHQGLSSPVTKSFNRGEC
B16: 137-Fab-609-IgG4 (bispecific antibody)
heavy: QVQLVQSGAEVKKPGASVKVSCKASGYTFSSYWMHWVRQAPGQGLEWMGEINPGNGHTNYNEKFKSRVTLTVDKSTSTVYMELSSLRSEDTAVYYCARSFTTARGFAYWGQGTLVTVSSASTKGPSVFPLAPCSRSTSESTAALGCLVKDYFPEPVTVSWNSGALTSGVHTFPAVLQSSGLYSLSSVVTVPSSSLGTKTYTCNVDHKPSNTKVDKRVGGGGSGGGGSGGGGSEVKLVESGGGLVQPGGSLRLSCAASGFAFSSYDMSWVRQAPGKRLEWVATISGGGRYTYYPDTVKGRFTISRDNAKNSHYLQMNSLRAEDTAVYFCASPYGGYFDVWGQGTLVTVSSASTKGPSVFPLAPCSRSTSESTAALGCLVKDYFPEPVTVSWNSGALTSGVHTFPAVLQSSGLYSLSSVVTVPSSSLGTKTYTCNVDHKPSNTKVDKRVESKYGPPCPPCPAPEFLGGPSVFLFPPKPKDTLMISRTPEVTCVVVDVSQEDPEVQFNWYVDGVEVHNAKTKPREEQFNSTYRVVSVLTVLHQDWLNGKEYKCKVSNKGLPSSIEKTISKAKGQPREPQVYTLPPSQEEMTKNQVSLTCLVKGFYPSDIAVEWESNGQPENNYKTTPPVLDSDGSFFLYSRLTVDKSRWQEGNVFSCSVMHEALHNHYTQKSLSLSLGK
light: B15 light
B17: Anti-CD137-Hu (antibody, human IgG4 S228P, kappa, V domains shown)
VH: QVQLVQSGAEVKKPGASVKVSCKASGYTFSSYWMHWVRQAPGQGLEWMGEINPGNGHTNYNEKFKSRVTLTVDKSTSTVYMELSSLRSEDTAVYYCARSFTTARGFAYWGQGTLVTVSS
VL: EIVMTQSPDFQSVTPKEKVTITCRASQTISDYLHWYQQKPDQSPKLLIKYASQSISGIPSRFSGSGSGSDFTLTINSLEAEDAATYYCQDGHSFPPTFGQGTKVEIKR
notes: Humanized anti-human CD137, IgG4 (S228P), kappa; also called humanized 4B4-1-1
B18: Anti-CD137-Hu-HC+609-LC (antibody, human IgG4 S228P, kappa, V domains shown)
VH: B17 VH
VL: EIVLTQSPATLSLSPGERATLSCRASQSISNFLHWYQQKPGQAPRLLIKYASQSISGIPARFSGSGSGTDFTLTISSLEPEDFAVYFCQQSNSWPHTFGQGTKVEIKR
notes: Hybrid antibody
B19: 601-HC+20-Hu-LC (antibody, human IgG1, kappa, V domains shown)
VH: EVQLVESGGGLVQPGGSLRLSCAASGYTFTNYGMNWVRQAPGKGLEWVGWINTYTGEPTYAADFKRRFTFSLDTSKSTAYLQMNSLRAEDTAVYYCAKYPHYYGSSHWYFDVWGQGTLVTVSS
VL: DIQMTQSPSSLSASVGDRVTITCSASQGISNFLSWYQQKPGKTVKLLIYYTSSLHSGVPSRFSGSGSGTDYTFTISSLQPEDIATYYCQQYSNLPWTFGQGTKVEIKR
notes: Hybrid antibody
B20: 601-HC+601-LC-D28G (antibody, human IgG1, kappa, V domains shown)
VH: B19 VH
VL: B8 VL
B21: 94-Fab-19H6-IgG1-LALA (bispecific antibody)
heavy: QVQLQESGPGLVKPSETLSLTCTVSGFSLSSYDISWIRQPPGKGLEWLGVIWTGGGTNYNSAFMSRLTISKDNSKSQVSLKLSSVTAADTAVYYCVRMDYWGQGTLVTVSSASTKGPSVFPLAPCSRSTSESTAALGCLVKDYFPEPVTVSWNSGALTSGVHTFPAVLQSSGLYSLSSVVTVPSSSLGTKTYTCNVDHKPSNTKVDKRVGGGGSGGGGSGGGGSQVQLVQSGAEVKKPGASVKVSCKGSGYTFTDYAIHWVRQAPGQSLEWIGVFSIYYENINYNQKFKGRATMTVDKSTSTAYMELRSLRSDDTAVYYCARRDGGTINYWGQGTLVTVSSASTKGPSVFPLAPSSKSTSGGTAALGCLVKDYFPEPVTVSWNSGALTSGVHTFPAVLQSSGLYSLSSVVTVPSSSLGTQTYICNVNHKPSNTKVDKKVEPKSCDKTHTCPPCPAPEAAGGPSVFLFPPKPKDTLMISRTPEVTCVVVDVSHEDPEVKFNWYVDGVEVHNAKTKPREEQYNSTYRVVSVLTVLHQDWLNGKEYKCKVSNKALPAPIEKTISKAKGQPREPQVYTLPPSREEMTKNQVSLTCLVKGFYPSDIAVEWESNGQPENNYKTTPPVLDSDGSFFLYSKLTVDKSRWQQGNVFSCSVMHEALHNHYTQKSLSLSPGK
light: DVVMTQSPLSLPVTLGQPASISCRSSQSLVHSNGNTYLHWYQQRPGQSPRLLIYKVSNRFSGVPDRFSGSGSGTDFTLKISRVEAEDVGVYFCSQSTHIPWTFGQGTKVEIKRTVAAPSVFIFPPSDEQLKSGTASVVCLLNNFYPREAKVQWKVDNALQSGNSQESVTEQDSKDSTYSLSSTLTLSKADYEKHKVYACEVTHQGLSSPVTKSFNRGEC
B22: 19H6-Fab-94-IgG1-LALA (bispecific antibody)
heavy: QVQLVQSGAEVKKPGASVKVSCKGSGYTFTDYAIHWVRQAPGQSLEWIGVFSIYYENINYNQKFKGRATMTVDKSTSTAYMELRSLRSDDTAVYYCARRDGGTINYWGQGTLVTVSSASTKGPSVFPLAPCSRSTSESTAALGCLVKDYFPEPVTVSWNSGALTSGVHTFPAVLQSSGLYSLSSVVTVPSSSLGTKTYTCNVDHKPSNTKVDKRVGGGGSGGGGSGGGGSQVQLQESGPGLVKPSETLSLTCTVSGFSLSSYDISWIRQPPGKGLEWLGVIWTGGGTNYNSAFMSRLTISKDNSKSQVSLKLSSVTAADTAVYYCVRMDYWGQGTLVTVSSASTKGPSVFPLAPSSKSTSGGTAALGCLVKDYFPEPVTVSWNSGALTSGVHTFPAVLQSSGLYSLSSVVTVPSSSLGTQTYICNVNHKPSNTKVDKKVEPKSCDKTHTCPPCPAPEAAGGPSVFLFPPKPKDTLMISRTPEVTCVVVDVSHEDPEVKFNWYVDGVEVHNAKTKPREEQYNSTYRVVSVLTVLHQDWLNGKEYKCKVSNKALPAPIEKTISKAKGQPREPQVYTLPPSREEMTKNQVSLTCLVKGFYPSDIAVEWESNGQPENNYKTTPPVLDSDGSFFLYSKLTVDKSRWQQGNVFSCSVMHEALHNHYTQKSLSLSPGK
light: B21 light
B23: 19H6-Hu-HC+94-Hu-LC (antibody, human IgG1, kappa, V domains shown)
VH: QVQLVQSGAEVKKPGASVKVSCKGSGYTFTDYAIHWVRQAPGQSLEWIGVFSIYYENINYNQKFKGRATMTVDKSTSTAYMELRSLRSDDTAVYYCARRDGGTINYWGQGTLVTVSS
VL: DVVMTQSPLSLPVTLGQPASISCRSSQSLLHSNGNTYLHWYQQRPGQSPRLLFYKVSNRFSGVPDRFSGSGSGTDFTLKISRVEAEDVGVYFCSQSTHVPWTFGQGTKVEIKR
notes: Hybrid antibody
B24: 94-Hu (antibody, human IgG1, kappa, V domains shown)
VH: QVQLQESGPGLVKPSETLSLTCTVSGFSLSSYDISWIRQPPGKGLEWLGVIWTGGGTNYNSAFMSRLTISKDNSKSQVSLKLSSVTAADTAVYYCVRMDYWGQGTLVTVSS
VL: B23 VL
notes: Humanized anti-human CD137, IgG1, kappa; also called 94-Hu-HC+94-Hu-LC
B25: 94-Hu-HC+19H6-Hu-LC (antibody, human IgG1, kappa, V domains shown)
VH: B24 VH
VL: B23 VL with L30V, F53I, V99I
notes: Hybrid antibody

Changes are numbered by the printed parent chain. Numbers in names are those of the source. Where “and” joins values, the source holds several entries; their conditions need not be identical. Identical values can stand only once.

T2 sequence (Q15116 25-170): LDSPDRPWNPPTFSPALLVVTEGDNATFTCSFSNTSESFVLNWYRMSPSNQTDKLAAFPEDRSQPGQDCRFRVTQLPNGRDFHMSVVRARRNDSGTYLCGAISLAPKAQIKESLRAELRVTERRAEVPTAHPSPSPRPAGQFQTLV
T1 sequence (Q15116 other isoform, or with tags, fused parts or gaps): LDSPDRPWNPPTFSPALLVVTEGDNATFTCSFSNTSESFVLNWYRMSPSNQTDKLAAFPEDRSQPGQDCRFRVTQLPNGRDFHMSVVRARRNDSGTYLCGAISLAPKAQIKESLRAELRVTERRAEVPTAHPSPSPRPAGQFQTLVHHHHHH

The target of one experiment is TGF-β1 (Sino Biological, Cat. No. 10804-HNAC) (UniProt P01137 279-390). Description: ELISA, plate coated with TGF-β1. (In an ELISA, binding on a coated surface is turned into a signal by an enzyme label.)
Sequence of TGF-β1 (Sino Biological, Cat. No. 10804-HNAC) (P01137 279-390 limits assumed): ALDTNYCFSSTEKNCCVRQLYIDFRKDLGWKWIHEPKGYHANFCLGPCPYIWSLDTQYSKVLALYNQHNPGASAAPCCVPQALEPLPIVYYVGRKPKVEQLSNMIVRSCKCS
B1: a half-maximal response (EC50) required 698 pM.

Take B2: the EC50 was 363 pM.

The molecule B3 showed a concentration for a half-maximal effect (EC50) of 108 pM. Compared with the last molecule, the EC50 is about 3.4-fold lower.

As for B4, the binding result is reported as “no binding”.

As to B5, the concentration for a half-maximal effect (EC50) was 66.2 pM and 134 pM.

B6: the EC50 is 526 pM and 1270 pM.

In turn, B7 had an EC50 of 41.4 pM.

The next experiment has as its target T1, PD1-His (human, UniProt Q15116 25-170).
T1 construct: extracellular domain; In-house protein; also called extracellular domain protein of human PD-1 with a 6*His tag
Kind of experiment: ELISA, plate coated with PD1-His.
With B1, the concentration for a half-maximal effect (EC50) amounted to 437 pM.

B2 came in with a 50% effective concentration (EC50) of 2000 pM.

In turn, B3 registered an EC50 of 3960 pM.

With B4, the binding result is “no binding”.

Turning to B5, the binding result is “no binding”.

On to B6, for which the binding result is reported as “no binding”.

As to B8, the concentration for a half-maximal effect (EC50) is 485 pM.

With B9, the EC50 stood at 175 pM.

Molecule B10 yielded a concentration for a half-maximal effect (EC50) of 533 pM.

In the case of B11, a half-maximal effect (EC50) was put at 456 pM.

On to B12, for which the EC50 is 1030 pM.

Take B13: the EC50 worked out at 486 pM.

Take B14: a half-maximal response (EC50) required 526 pM.

A further experiment addresses T2, PD1-ECD-His (human, UniProt Q15116 25-170).
T2 construct: extracellular domain; Bought; also called recombinant protein of the extracellular segment of human PD-1 with a polyhistidine tag (Sino Biological 10377-H08H); not shown: polyhistidine tag
Kind of experiment: ELISA, plate coated with PD1-ECD-His.
For B15, it took 229 pM to reach a half-maximal effect (EC50).

On to B16, for which a half-maximal response (EC50) required 1420 pM.

Take B17: the binding result is on record as “no binding”.

Consider B18, for which the binding result is on record as “no binding”.

The target of the next experiment is T3, VEGF165-His (human, UniProt P15692-4 27-191).
T3 construct: also called Human VEGF165 with a 6*His tag
T3 sequence: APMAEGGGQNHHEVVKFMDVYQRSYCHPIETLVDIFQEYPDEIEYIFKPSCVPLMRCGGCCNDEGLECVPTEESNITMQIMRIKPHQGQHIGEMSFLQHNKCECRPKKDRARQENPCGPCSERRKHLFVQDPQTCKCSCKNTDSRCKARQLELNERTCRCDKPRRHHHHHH
Kind of experiment: ELISA, plate coated with VEGF165-His.
Molecule B19 had a concentration giving a half-maximal response (EC50) of 8220 pM.

As for B20, a half-maximal response (EC50) required 133 pM.

The target of another experiment is T4, CD137-ECD-Fc (human, UniProt Q07011 24-186).
T4 construct: extracellular domain; Bought; also called recombinant protein of the extracellular segment of human CD137 with Fc tags (Sino Biological 10041-H02H); not shown: Fc tag
T4 sequence (Q07011 24-186): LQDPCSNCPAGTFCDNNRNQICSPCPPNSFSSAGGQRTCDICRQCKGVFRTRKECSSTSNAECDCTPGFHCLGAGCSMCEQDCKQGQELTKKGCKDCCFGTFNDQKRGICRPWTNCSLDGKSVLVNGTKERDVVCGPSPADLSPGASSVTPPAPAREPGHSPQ
Description: ELISA, plate coated with CD137-ECD-Fc.
The molecule B21 gave a half-maximal effective concentration (EC50) of 241 pM.

B22 displayed an EC50 of 27600 pM.

For the molecule B15, the half-maximal effective concentration (EC50) was 357 pM.

B16: the EC50 came to 242 pM.

In the case of B23, the binding result is “no binding”.

For B24, the response was half-maximal at 391 pM (EC50).

Consider B25, for which a half-maximal effect (EC50) was put at 634 pM.

For B17, the EC50 is 461 pM.

Regarding B18, the binding result was “no binding”.

A further experiment addresses T5, HER2-ECD-His (human, UniProt P04626 23-652).
T5 construct: extracellular domain; Bought; also called recombinant protein of the extracellular segment of human Her-2 with a polyhistidine tag (ACROBiosystems HE2-H5225); not shown: polyhistidine tag
Kind of experiment: ELISA, plate coated with HER2-ECD-His.
B21 yielded a concentration for a half-maximal effect (EC50) of 158 pM.

As to B22, it took 120 pM to reach a half-maximal effect (EC50).

B23: it took 139 pM to reach a half-maximal effect (EC50).

For B24, the binding result was “no binding”.

Turning to B25, the binding result is recorded as “no binding”.
